test system: Bacillus subtilis DB104 (SP-AmyQ fusion secretion); test: AmyQ secretion efficiency, weighted average sort bin (1 = best secretion, 10 = worst) (bin number (weighted average, 1-10)); higher = lower secretion efficiency
How it was run: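 A B. subtilis DB104 library carrying amyE-integrated fusions of designed signal peptides to mature AmyQ was encapsulated at about 0.3 cells per ~65 nL alginate bead with fluorescein-starch and grown about 13 h at room temperature. Following nile red staining, occupied beads were flow-sorted as large particles into 10 equally populated bins by green/red fluorescence ratio, and the bin amplicons were Illumina-sequenced. The secretion score is the read-frequency-weighted average bin number normalised to beads per bin, leaving out low-abundance sequences.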

**Q.** Which AmyQ secretion efficiency does the source give for MRMLWRSLALCGLALTLAPCAQAATP here?
**A.** 2.06

**Q.** For MKKKQVMLALTAAAGLGLTALHDAPAAKAAPL, which AmyQ secretion efficiency is on record?
**A.** 2.66

**Q.** Which AmyQ secretion efficiency does the source give for MKKLLAAGIIGLLTVSIASPQFAAEK here?
**A.** 6.75

**Q.** MKKAFLVFLSVVLVTTVFLVKQQESVAQVKQL was tested. Which AmyQ secretion efficiency did it give?
**A.** 3.34

**Q.** With MGLGKKLSVAVAASFMSLSISLPGVQAEDD as the sequence, how does the AmyQ secretion efficiency read?
**A.** 4.28

**Q.** MPYLMMVLLLLVTGLFMSLFAVTATASAQTG was tested. Which AmyQ secretion efficiency did it give?
**A.** 1.47

**Q.** Which AmyQ secretion efficiency does the source give for MKKSRRALLLLLFAFEPSASGKKL here?
**A.** 7.28

**Q.** With MRKKKWMVGLLAGCLAAGGFSYNAFATEN as the sequence, how does the AmyQ secretion efficiency read?
**A.** 3.58

**Q.** For MKLAKRVSALTPSTTLAITGFVGSTTFTAPTAKAKEL, which AmyQ secretion efficiency is on record?
**A.** 6.19

**Q.** Which AmyQ secretion efficiency does the source give for MKKWMAGLFLAAAVLLCLKRRRKRIQGASS here?
**A.** 6.89

**Q.** With MRKKRVITCVMAASLTLGSLLRKRKKRASAKED as the sequence, how does the AmyQ secretion efficiency read?
**A.** 6.48

**Q.** Which AmyQ secretion efficiency does the source give for MKKWMITIAMLKRRRIALFVFISPLKSHKT here?
**A.** 7.36

**Q.** With MKKRKRRNFKRFIAAFLVLALMIRRVPARVLAKST as the sequence, how does the AmyQ secretion efficiency read?
**A.** 6.23

**Q.** With MKKLLAAGIIGLLTVTVFVTSIASPSFAAEK as the sequence, how does the AmyQ secretion efficiency read?
**A.** 2.51

**Q.** With MKKIGLLFMLCLAALFTIGFPAQQADAEED as the sequence, how does the AmyQ secretion efficiency read?
**A.** 2.27

**Q.** MGLGKKLSVAVAASFMSLSISLPGVQAAED was tested. Which AmyQ secretion efficiency did it give?
**A.** 2.84

**Q.** Which AmyQ secretion efficiency does the source give for MKKRITYSLLALLAVVAFAFTDSSAAKAAEA here?
**A.** 2.68

**Q.** How did the AmyQ secretion efficiency turn out when MTKKAWFLPLVCVLLISGWLAPAASASEQTT was run?
**A.** 1.79

**Q.** How did the AmyQ secretion efficiency turn out when MNLRKIILLSSALSLGMLVSAAPVLATSS was run?
**A.** 2.82

**Q.** For MLKKKWMVGLLAGCLAAGDDEYNAFATEN, which AmyQ secretion efficiency is on record?
**A.** 4.98

**Q.** MKLKSKLRKKCRRRSTVFVATTIANAPTH was tested. Which AmyQ secretion efficiency did it give?
**A.** 7.48

**Q.** Which AmyQ secretion efficiency does the source give for MKKRTIQVMIMFTLLLTMAFSADAADS here?
**A.** 5

**Q.** For MKIRKILLSSALSFGMLVISAVPALAAGT, which AmyQ secretion efficiency is on record?
**A.** 2.24

**Q.** Which AmyQ secretion efficiency does the source give for MKLWMRKTLVVLFTIVTFGLVSPPAALMTDKP here?
**A.** 2.85

**Q.** With MRRKKKKVVSALSISALALSVSGVASAHEI as the sequence, how does the AmyQ secretion efficiency read?
**A.** 3.9

**Q.** How did the AmyQ secretion efficiency turn out when MFNRLFRVCFLAALIMAFTLPNSLYAQKP was run?
**A.** 2.72

**Q.** With MKKAAAVLLSLGLVFGFSYGAGHVWEAKTK as the sequence, how does the AmyQ secretion efficiency read?
**A.** 5.37

**Q.** MRMLWRSLALCGLALTLAPCAQGAEP was tested. Which AmyQ secretion efficiency did it give?
**A.** 2.58

**Q.** MLKKIALTLCPAIVGSLLFFTKPQASAHVS was tested. Which AmyQ secretion efficiency did it give?
**A.** 3.85

**Q.** With MNKKYGVLIVCIIFTSALFPTFSSVTAAQG as the sequence, how does the AmyQ secretion efficiency read?
**A.** 1.02

**Q.** Which AmyQ secretion efficiency does the source give for MTRFILVLSFLSIIVAYPIQTNASPM here?
**A.** 5.75

**Q.** How did the AmyQ secretion efficiency turn out when MFNRLRVCFLAALIMAFTLPNSVYAQKP was run?
**A.** 2

**Q.** With MKLKSKLFVICLAAAAIFRKKKVSANAEALDF as the sequence, how does the AmyQ secretion efficiency read?
**A.** 6.32

**Q.** How did the AmyQ secretion efficiency turn out when MKRTWNVCLTALLSVLLVAGSVPFHAEAAPD was run?
**A.** 2.13

**Q.** With MRGKSAVLLSLIMLIAGFLISFPFQM as the sequence, how does the AmyQ secretion efficiency read?
**A.** 5.95

**Q.** For MLKKIALTLCPAIVGSLLFFTAIASAHVS, which AmyQ secretion efficiency is on record?
**A.** 3.46

**Q.** MKLWMRKTLVVLFTIVTFGLVSPPAAMMADKP was tested. Which AmyQ secretion efficiency did it give?
**A.** 1.82

**Q.** Which AmyQ secretion efficiency does the source give for MPYLKRVLLLLVTGLFMSLFAVTATASARRR here?
**A.** 7.69

**Q.** MKKKNSISSLNMLAAGLTASAIVGTTLVVTPAEAATI was tested. Which AmyQ secretion efficiency did it give?
**A.** 2.17

**Q.** With MKKTIMSFVAVAALSTTAFGAHASAKKR as the sequence, how does the AmyQ secretion efficiency read?
**A.** 2.68

**Q.** With MKLWMRKTLVVLFTIVTFGLVSPPAALMIDKP as the sequence, how does the AmyQ secretion efficiency read?
**A.** 2.83

**Q.** How did the AmyQ secretion efficiency turn out when MKKLLAAGIIGLLTVFIAVPSFAAEK was run?
**A.** 2.33

**Q.** With MKLKKRVSMFLVALTMCGGLFVTPAKAVPR as the sequence, how does the AmyQ secretion efficiency read?
**A.** 1.68

**Q.** MKSKGSIMACLILFSFTITTFINTETGSISAFSN was tested. Which AmyQ secretion efficiency did it give?
**A.** 5.66

**Q.** For MKKKLAAGLTASAIVGTTLVVTPAESATI, which AmyQ secretion efficiency is on record?
**A.** 3.72

**Q.** Which AmyQ secretion efficiency does the source give for MLTINLLTIYIMLLGLIAWFPGAAQAEEK here?
**A.** 4.46

**Q.** For MKKWMILILAGIALFVFISPLKSHKT, which AmyQ secretion efficiency is on record?
**A.** 7.86

**Q.** How did the AmyQ secretion efficiency turn out when MKRLFMKGSLVLFAVVFVFAVKGAPAKAETH was run?
**A.** 3.72

**Q.** How did the AmyQ secretion efficiency turn out when MFNRLFRRCYTSTLIMAFTLPNSVYAQKP was run?
**A.** 5.72

**Q.** How did the AmyQ secretion efficiency turn out when MRKKLKWLSFKRRRKRLLFLFKYQFSNNDS was run?
**A.** 8.72

**Q.** How did the AmyQ secretion efficiency turn out when MGRIKTKITILLVLLLLLAGGYWYIN was run?
**A.** 6.88

**Q.** Which AmyQ secretion efficiency does the source give for MKKVKKRKRKCLSLILSVLAAPPSGAKAESV here?
**A.** 7.36

**Q.** Which AmyQ secretion efficiency does the source give for MKKSQYFIVFICFFVLFSVHPIAAANADS here?
**A.** 4.12

**Q.** Which AmyQ secretion efficiency does the source give for MKKRLIGFLVLVPALIMSGITLIEPNKK here?
**A.** 7.44

**Q.** For MLKKKWMVGLLAGCLAAGGFSYNAFATKK, which AmyQ secretion efficiency is on record?
**A.** 4.27

**Q.** With MKKSQYFIVFICFFVLFSEHEEAAAAADS as the sequence, how does the AmyQ secretion efficiency read?
**A.** 4.11

**Q.** MTKKAWFLPLVCVLLISGWLAPAASASRQTT was tested. Which AmyQ secretion efficiency did it give?
**A.** 1.94

**Q.** With MKLSVKIAGVLTVAAAAMTAKMYATNKGN as the sequence, how does the AmyQ secretion efficiency read?
**A.** 6.32

**Q.** MAIIIAIIAAVIVIAALITFKKRRKRNASPG was tested. Which AmyQ secretion efficiency did it give?
**A.** 8.46

**Q.** With MKKAAAVLLSLGLVFGFSYGAGHVDEAKTK as the sequence, how does the AmyQ secretion efficiency read?
**A.** 7.45

**Q.** MKTKTLKRFSAILTLSIFAPNETFAQTA was tested. Which AmyQ secretion efficiency did it give?
**A.** 3.24

**Q.** How did the AmyQ secretion efficiency turn out when MSKVLMAFIICLSLILSVLAAPPSGAKAESV was run?
**A.** 2.82

**Q.** MKTKTLFIFSAILTLSIFAPNEGFAQTA was tested. Which AmyQ secretion efficiency did it give?
**A.** 3.32

**Q.** Which AmyQ secretion efficiency does the source give for MKKSYKATALFLGLTPAGANAADL here?
**A.** 8.17
